Reference: patent US20130116185A1, “PHOSPHATIDYLINOSITOL 3-KINASES ACTIVITY REGULATOR INCLUDING THE FIFTH ZINC FINGER DOMAIN OF FOG2” (SNU R&DB FOUNDATION, priority 2010, published 2013)
“Also recorded” adds a separate entry of the source.

How the values were obtained:
p85α = biological target: T1, p85α (Homo sapiens, UniProt P27986); assay: Interaction of FOG2 zinc finger domain with p85α (α-Flag immunoprecipitation, Western blot); type: binding; settings: Hep3B cells, 2 days after transfection, FIG. 1B
T1 construct: subject to the Western blot analysis using p85α (sc-1637, Santa Cruz); endogenous in cells; host or cells: Hep3B
From the text: To reveal the region of FOG2 interacting with p85α as a subunit of PI3K, we numbered eight (8) zinc finger domains of FOG2. Then, mutated FOG2 with altered zinc finger domain (FOG-ZF-5-m and FOG-ZF-6-m) was manufactured by mutating two domains (known to interact with p85α) positioned at 413-789th amino acid residues of FOG2.
Hep3B cells were transfected with pCK-flag (control), FOG2-wt (wild type) and FOG2 mutants having modified the zinc finger domain (FOG2-ZF-5-m and FOG2-ZF-6-m). On 2 days after transfection, the lysates were obtained using the lysis buffer (20 mM Hepes (pH7.4), 100 mM NaCl, 20 mM KAc, 10 mM MgCl2, […], 1 mM Na3VO4, 5 mM NaF, 1% NPO4). The cell lysates were immunoprecipitated with the α-Flag (Sigma, A2220) and subject to the Western blot analysis using p85α (sc-1637, Santa Cruz) and α-Flag antibody (Sigma, F1804).

MDA MB 231 cells [1] = assay: Cell migration, modified Boyden chamber method; type: cell-based; settings: transfected 24 hr, 18 hr migration, FIG. 3A
Protocol: MDA MB 231 cells were transfected with pCK-flag (control), FOG2-wt (wild type) and FOG2 mutants having modified zinc finger domain (FOG2-ZF-5-m and FOG2-ZF-6-m). The cell migration was then analyzed using the modified Boyden chamber method (Albini A et al., Cancer Res 1987 47:3239-45). Following the transfection for 24 hr, MDA MB 231 cells (1×10^5) were suspended in a serum-free medium and seeded in triplicate in the upper part of BD chamber ([…] pore size). The lower part was filled with the serum-free medium. Following the incubation at 37° C. for 18 hr, non-migrating cells positioned at the upper surface of filters were cleaned with a cotton swab. The migrating cells passing through the lower surface of filters were fixed with 70% ethanol and treated with the Giemsa staining solution for 50 min. Then, the cells were rinsed with water and observed under a microscope. The cell migration rate was determined by counting the number of cells present in randomly-selected six sections and the migration range was expressed as the average number of cells per a microscopic field.
MDA MB 231 cells were incubated with 4 μM Mock (control, DMSO), 4 μM ZF-5-wt-24, 4 μM ZF-5-m-24, 4 μM ZF-5-wt-20 or 4 μM ZF-3-wt-21. After treatment, the cell migration was analyzed using the modified Boyden chamber method (Albini A et al., Cancer Res 1987 47:3239-45). After 2 days of treatment, MDA MB 231 cells (1×10^5) were suspended in the serum free medium and seeded in triplicate in the upper part of BD chamber ([…] pore size). The lower part was filled with the serum free medium. Following the incubation at 37° C. for 18 hr, non-migrating cells positioned at the upper surface of filters were cleaned with the cotton swab. The migrating cells passing through the lower side surface of filters were fixed with 70% ethanol and stained using the Giemsa stain method. The cell migration rate was determined by counting the number of cells present in randomly-selected six sections and the migration range was expressed as the average number of cells per a microscopic field.

MDA MB 231 cells [2] = assay: Cell proliferation MTT assay; type: cell-based; settings: transfected with 100 ng DNA, 3 days post-transfection, FIG. 6A
Protocol: Because the PI3K activation is critical in cell growth, the cell proliferation was analyzed to investigate the inhibitory effect of the FOG2 zinc finger domain using the MTT assay.
MDA MB 231 cells were seeded in a 96-well plate, and transfected with 100 ng DNA of pCKflag, FOG2-wt, FOG2-ZF-5-m or FOG2-ZF-6-m using Lipofectamine 2000. On 3 days post-transfection, the MTT assay was performed.
MDA MB 231 cells (2×10^3 cells) were seeded in a 96-well plate and treated with 4 μM each peptide for 3 days. After the treatment, 50 μl of MTT solution (2 mg/ml) was added to each well, incubated at 37° C. for 1 hr. Then, 150 μl of DMSO was added to each well and the absorbance value of each well was measured at 590 nm using a microplate reader.

Akt = Akt phosphorylation by Western blot in transfected Hep3B cells after IGF-1 stimulation; type: cell-based; settings: FIG. 1D
Protocol: Hep3B cells were transfected with FOG2 mutants having modified zinc finger domain to measure the effect on the Akt signaling by FOG2-ZF-5m. The Akt activity was measured by analyzed Akt phosphorylation.
Hep3B cells were transfected with pCK-flag (control), FOG2-wt (wild type) and FOG2 mutants having modified zinc finger domain (FOG2-ZF-5-m and FOG2-ZF-6-m) and stimulated with IGF-1. The expression of Akt (Cell signaling Technology, USA), pAkt (Cell signaling Technology, USA) and GAPDH(Santa cruz, USA) were measured by Western blot analysis.

PI3K = PI3K (Homo sapiens, UniProt P27986); assay: PI3K activity in Hep3B cells transfected with FOG2 constructs (p85α immunoprecipitation, 32P-ATP/PIP2 kinase assay); type: cell-based; parameters: The cell lysates were immunoprecipitated with p85α (sc-1637, Santa Cruz) and Protein G-Sepharose beads; endogenous in cells; host or cells: Hep3B
Protocol: To investigate the inhibitory effect to PI3K activity by FOG2 zinc finger domain, PI3K activity was analyzed using FOG2 mutants having modified zinc finger domain. Specially, it is known that IGF signaling pathway plays an important role in cancer and the increased IGF-1 level enhances the risk of various cancers in many researches.
Accordingly, the PI3K activity was increased by incubating Hep3B cells with IGF-1 and then measured when the cells were incubated with peptides having mutated FOG2 zinc finger domain.
After Hep3B cells incubation, 100 ng/ml IGF-1 (Insulin like growth factor-1) was added to the cells and incubated for 30 min.
Hep3B cells were transfected with pCK-flag (control), FOG2-wt (wild type) and FOG2 mutants having modified zinc finger domain (FOG2-ZF-5-m and FOG2-ZF-6-m). Two days later, the lysates were obtained using a lysis buffer (20 mM Hepes (pH7.4), 100 mM NaCl, 20 mM KAc, 10 mM MgCl2, 10 mM ZnCl2, 1 mM Na3VO4, 1% NPO4). The cell lysates were immunoprecipitated with p85α (sc-1637, Santa Cruz) and Protein G-Sepharose beads using the same method above. After binding to beads, the lysates were washed 2 times with the lysis buffer and one time with the wash buffer (0.1 M Tris-HCl (pH 7.4), 5 mM LiCl, and 0.1 mM Na3VO4).
For measurement of PI3K activity, 10 μl of sonicated PIP2 (1 μg/μl, Calbiochem), 10 μl of 100 mM MgCl2 and 1 μl of [-^32P]ATP (500 μCi/ml) were added to the kinase buffer (10 mM Tris-HCl (pH 7.4), 150 mM NaCl, 1 mM Na3VO4, 10 mM ZnCl2) and incubated at 37° C. for 30 min. After incubation, 20 μl of 6 N HCl was added to stop the reaction and PIP2 was extracted by treatment with 200 μl of methanol:chloroform (1:1) solution. The amount of radioactively labeled PIP2 in the extract was measured using a scintillator counter.

Sequence of PI3K (P27986 whole entry, the tested form may be a part): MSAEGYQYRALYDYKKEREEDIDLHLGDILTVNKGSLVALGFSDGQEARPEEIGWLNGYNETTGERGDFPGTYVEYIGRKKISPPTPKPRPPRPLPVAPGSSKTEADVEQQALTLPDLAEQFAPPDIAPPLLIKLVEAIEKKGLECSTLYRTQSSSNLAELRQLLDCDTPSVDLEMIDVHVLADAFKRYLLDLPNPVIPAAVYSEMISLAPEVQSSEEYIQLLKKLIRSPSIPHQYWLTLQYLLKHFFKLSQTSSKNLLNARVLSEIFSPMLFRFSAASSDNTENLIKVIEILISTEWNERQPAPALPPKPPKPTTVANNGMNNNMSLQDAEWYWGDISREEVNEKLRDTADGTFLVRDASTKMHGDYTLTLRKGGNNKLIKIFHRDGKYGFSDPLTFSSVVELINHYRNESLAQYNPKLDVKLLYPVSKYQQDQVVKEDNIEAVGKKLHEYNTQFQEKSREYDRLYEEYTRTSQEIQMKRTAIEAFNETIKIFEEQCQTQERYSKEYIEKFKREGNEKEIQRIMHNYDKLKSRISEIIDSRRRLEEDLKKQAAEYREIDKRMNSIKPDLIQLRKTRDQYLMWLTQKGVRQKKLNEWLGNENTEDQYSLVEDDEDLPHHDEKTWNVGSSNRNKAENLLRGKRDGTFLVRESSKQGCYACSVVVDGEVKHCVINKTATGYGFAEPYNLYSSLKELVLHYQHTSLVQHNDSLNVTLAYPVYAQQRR
T1 sequence (P27986 whole entry, the tested form may be a part): as above

- interaction with p85α (p85α): did not
B1: FOG2-ZF-5-m: Mutated FOG2 with altered the fifth zinc finger domain (two histidine residues substituted with alanine) (protein)
chain: MSRRKQSKPRQIKRPLEDAIEDEEEECPSEETDIISKGDFPLEESFSTEFGPENLSCEEVEYFCNKGDDEGIQETAESDGDTQSEKPGQPGVETDDWDGPGELEVFQKDGERKIQSRQQLPVGTTWGPFPGKMDLNNNSLKTKAQVPMVLTAGPKWLLDVTWQGVEDNKNNCIVYSKGGQLWCTTTKAISEGEELIAFVVDFDSRLQAASQMTLTEGMYPARLLDSIQLLPQQAAMASILPTAIVNKDIFPCKSCGIWYRSERNLQAHLMYYCSGRQREAAPVSEENEDSAHQISSLCPFPQCTKSFSNARALEMHLNSHSGVKMEEFLPPGASLKCTVCSYTADSVINFHQHLFSHLTQAAFRCNHCHFGFQTQRELLQHQELHVPSGKLPRESDMEHSPSATEDSLQPATDLLTRSELPQSQKAMQTKDASSDTELDKCEKKTQLFLTNQRPEIQPTTNKQSFSYTKIKSEPSSPRLASSPVQPNIGPSFPVGPFLSQFSFPQDITMVPQASEILAKMSELVHRRLRHGSSSYPPVIYSPLMPKGATCFECNITFNNLDNYLVAKKAYCSSRWQQMAKSPEFPSVSEKMPEALSPNTGQTSINLLNPAAHSADPENPLLQTSCINSSTVLDLIGPNGKGHDKDFSTQTKKLSTSSNNDDKINGKPVDVKNPSVPLVDGESDPNKTTCEACNITFSRHETYMVHKQYYCATRHDPPLKRSASNKVPAMQRTMRTRKRRKMYEMCLPEQEQRPPLVQQRFLDVANLNNPCTSTQEPTEGLGECYHPRCDIFPGIVSKHLETSLTINKCVPVSKCDTTHSSVSCLEMDVPIDLSKKCLSQSERTTTSPKRLLDYHECTVCKISFNKVENYLAHKQNFCPVTAHQRNDLGQLDGKVFPNPESERNSPDVSYERSIIKCEKNGNLKQPSPNGNLFSSHLATLQGLKVFSEAAQLIATKEENRHLFLPQCLYPGAIKKAKGADQLSPYYGIKPSDYISGSLVIHNTDIEQSRNAENESPKGQASSNGCAALKKDSLPLLPKNRGMVIVNGGLKQDERPAANPQQENISQNPQHEDDHKSPSWISENPLAANENVSPGIPSAEEQLSSIAKGVNGSSQAPTSGKYCRLCDIQFNNLSNFITHKKFYCSSHAAEHVK
modifications: left off: small tags and cut ends
- reduction of cell migration (MDA MB 231 cells [1]): does not; also recorded: not observed
- effect on cell proliferation (MDA MB 231 cells [2]): did not influence the cell proliferation
- Akt phosphorylation (Akt): increased
- PI3K activation by IGF-1 stimulation (PI3K; 100 ng/ml IGF-1 30 min, FIG. 1C): did not inhibit PI3K activation
- PI3K activity (PI3K; without IGF-1 stimulation, FIG. 5A): did not inhibit PI3K activity
